# From patent US20190292245A1 (published 2019)
# Read-outs that look alike come from different tables or passages of the source.
# What was measured:
# [1] = target: T1, recombinant tau protein (full-length) (human, UniProt P10636 1-441); assay: SPR (Biacore)
# [2] = target: T1, recombinant tau protein (full-length); assay: SPR (Biacore); remark: listed apart in the source
# T1 sequence (P10636 other isoform, or with tags, fused parts or gaps): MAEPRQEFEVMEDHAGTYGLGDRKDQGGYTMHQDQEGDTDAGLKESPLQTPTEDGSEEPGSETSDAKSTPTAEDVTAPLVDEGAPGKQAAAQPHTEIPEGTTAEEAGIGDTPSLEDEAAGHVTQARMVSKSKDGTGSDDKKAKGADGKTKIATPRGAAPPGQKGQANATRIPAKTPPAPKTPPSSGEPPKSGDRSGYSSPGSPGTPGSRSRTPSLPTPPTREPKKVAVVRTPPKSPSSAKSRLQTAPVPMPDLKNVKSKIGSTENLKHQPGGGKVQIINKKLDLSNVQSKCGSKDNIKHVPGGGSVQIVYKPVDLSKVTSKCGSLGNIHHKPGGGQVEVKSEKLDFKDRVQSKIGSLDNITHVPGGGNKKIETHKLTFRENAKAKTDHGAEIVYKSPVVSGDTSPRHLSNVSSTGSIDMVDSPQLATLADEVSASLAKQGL
Kd [1],Kd [2],Binder
3.91 nM,,"1C9 chimeric humanized antibody (antibody, V domains shown) VH: EVQLQQSGTVLARPGASVKMSCKTSGYTFTNHWMHWVKQRPGQGLEWIGAIDPGNSDTSYNQKFKGQAKLTAVTSASTAFMELSSLTNEDSAVYYCTRRDFFGGEYAVDYWGQGTSVTVSS VL: DVVMTQTPLSLPVSLGDQASISCRSSQSLVHSNGNTYLHWYLQKPGQSPKLLIYKVSNRFSGVPDRFSGSGSGTDFTLKISRVEAEDLGVYFCSQSTHVPWTFGGGTKLEIK"
3.39 nM,9.51 nM,"mouse monoclonal antibody 1C9 (antibody, V domains shown) VH: EVQLQQSGTVLARPGASVKMSCKTSGYTFTNHWMHWVKQRPGQGLEWIGAIDPGNSDTSYNQKFKGQAKLTAVTSASTAFMELSSLTNEDSAVYYCTRRDFFGGEYAVDYWGQGTSVTVSS VL: DVVMTQTPLSLPVSLGDQASISCRSSQSLVHSNGNTYLHWYLQKPGQSPKLLIYKVSNRFSGVPDRFSGSGSGTDFTLKISRVEAEDLGVYFCSQSTHVPWTFGGGTKLEIK"
,48 nM,"Armanezumab (antibody, V domains shown) VH: QVQLVQSGAEVKKPGASVKVSCKASGYTFTNHWMHWVRQAPGQGLEWMGAIDPGNSDTSYNQKFKGRVTMTRDTSTSTVYMELSSLRSEDTAVYYCARRDFFGGEYAVDYWGQGTLVTVSS VL: DIVMTQSPLSLPVTPGEPASISCRSSQSLVHSNGNTYLHWYLQKPGQSPQLLIYKVSNRFSGVPDRFSGSGSGTDFTLKISRVEAEDVGVYYCSQSTHVPWTFGQGTKVEIKR"
